How the values were obtained:
[1] = target: T1, human IL-1β (human, UniProt P01584 117-269); assay: cell-based or functional assay
[2] = target: T1, human IL-1β; assay: BIAcore, antibody captured on anti-IgG CM5 chip, IL-1β flowed
Experimental: (§1) Affinities and specificities of both Hu007 and Mu007 were determined using BlAcore measurements. BIAcore™ is an automated biosensor system that measures molecular interactions. (Karlsson, et al. (1991) J. Immunol. Methods 145: 229-240). In these experiments antibody was immobilized at low density on a BIAcore™ chip. Ethyl-dimethylaminopropyl-carbodiimide (EDC) was used to couple reactive amino groups to purified goat anti-human IgG or goat anti-rabbit IgG to a flow cell of a carboxy-methyl (CM5) BIAcore™ sensor chip. Goat IgG was diluted in sodium acetate buffer, pH 4.0, and immobilized on a flow cell of a CM5 chip using EDC to yield 1000 response units. Unreacted sites were blocked with ehanolamine. A flow rate of 60 μL/min was used. Multiple binding/elution cycles were performed by injection a 100 μL solution of 15 μg/mL Mu007 or Hu007 followed by human IL-1β, mouse IL-1β, rat IL-1β, cynomolgus monkey IL-1β, porcine IL-1β, human IL-1 receptor antagonist, and human IL-1α at decreasing concentrations for each cycle (e.g., 1500, 750, 375, 188, 94, 47, 23.5, 12, and 0 picomolar). Elution was performed with glycine-HCl, pH 1.5. BIAevaluation™ was used to analyze the kinetic data. Table 2 depicts the affinities of Hu007 and Mu007 for human and cynomolgus IL-1β. […] Cynomolgus and porcine IL-1β had 100% binding to Hu007 relative to human IL-1β.

[3] = target: T2, cynomolgus monkey IL-1β (cynomolgus monkey, UniProt P79182 117-268); assay: as above
T2 construct: also called Cynomolgus IL-1β
T2 sequence (looked up): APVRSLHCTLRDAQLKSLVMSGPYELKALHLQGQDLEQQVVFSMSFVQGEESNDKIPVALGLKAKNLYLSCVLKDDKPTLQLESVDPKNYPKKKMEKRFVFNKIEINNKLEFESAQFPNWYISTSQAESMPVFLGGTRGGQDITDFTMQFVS
Experimental: as §1

[4] = target: T1, human IL-1β; assay: competition ELISA on coated human IL-1β against biotinylated Mu007, Exp. A
Experimental: (§2) Wells of 96-well ELISA plates (Nunc-lmmuno plate, Cat # 439454, NalgeNunc) were coated with 100 μL of 0.5. μg/mL of human IL-1β in 0.2M sodium carbonate-bicarbonate buffer (pH 9.4) overnight at 4° C., washed with Wash Buffer, blocked with Superblock blocking buffer for 30 min at 37° C., and washed again with Wash Buffer. A mixture of biotinylated Mu007 (0.16 μg/mL final concentration) and competitor antibody (Mu007, Hu007, or Hu007 analogs starting at 100 μg/mL final concentration and serial 3-fold dilutions) in ELISA Buffer were added in triplicate in a final volume of 100 μL per well. As a no-competitor control, 100 μL of 0.16 μg/mL biotinylated Mu007 was used. As a background control, 100 gLL of ELISA Buffer was used. ELISA plates were incubated at 37° C. for 2 hr. After washing the wells with Washing Buffer, 100 μL of 1 μg/mL HRP-conjugated streptavidin (Jackson ImmunoResearch) was added to each well. ELISA plates were incubated at room temperature for 30 min and washed with Washing Buffer. For color development, 100 μL/well of ABTS substrate was added. Color development was stopped by adding 100 μL/well of 2% oxalic acid. Absorbance was read at 415 nm.
(§3) Mu007, Hu007 and Hu007 analogs competed with biotinylated Mu007 in a concentration-dependent manner. The IC₅₀ values of Mu007 and Hu007 in three independent ELISA competition experiments, obtained using the computer software Prism (GraphPad Software Inc., San Diego, Calif.) are shown in Table 1. The relative binding of Hu007 was on average 89% of Mu007.

[5] = target: T1, human IL-1β; assay: competition ELISA on coated human IL-1β against biotinylated Mu007, Exp. B
Experimental: as §2, §3

[6] = target: T1, human IL-1β; assay: competition ELISA on coated human IL-1β against biotinylated Mu007, Exp. C
Experimental: as §2, §3

[7] = target: T1, human IL-1β; assay: competition ELISA on coated human IL-1β against biotinylated Mu007, average of three experiments
Experimental: as §2
Mu007, Hu007 and Hu007 analogs competed with biotinylated Mu007 in a concentration-dependent manner. […]

[8] = target: T1, human IL-1β; assay: BIAcore (Example 13)
Experimental: (§4) Affinities and specificities of several Hu007 analogs were determined using BIAcore measurements. BIAcore™ is an automated biosensor system that measures molecular interactions. (Karlsson, et al. (1991) J. Immunol. Methods 145: 229-240). In these experiments antibody was immobilized at low density on a BIAcore™ chip. Ethyl-dimethylaminopropyl-carbodiimide (EDC) was used to couple reactive amino groups to protein A to a flow cell of a carboxy-methyl (CM5) BIAcore™ sensor chip. Protein A was diluted in sodium acetate buffer, pH 4.5, and immobilized on a flow cell of a CM5 chip using EDC to yield approximately 1000 response units. Unreacted sites were blocked with ethanolamine. A flow rate of 60 μl/min was used. Multiple binding/elution cycles were performed by injection of 10 μl of a 5 μg/mL Hu007 solution, and heavy chain CDR2 analogs N55D, N55S, N55Q, G56A, and G56V, followed by human IL-1β at decreasing concentrations for each cycle (e.g. 1500, 750, 375, 188, and […]). Elution was performed with glycine-HCl, pH 1.5. BIAevaluation™ was used to analyze the kinetic data. Table 5 depicts the affinities of Hu007 and the various Hu007 analogs for human IL-1β.

[9] = target: T1, human IL-1β; assay: cell-based or functional assay; remark: listed apart in the source
[10] = target: T1, human IL-1β; assay: BIAcore, antibody captured on protein A CM5 chip, human IL-1β flowed
Experimental: as §4

Binder | IC50, inhibition of human IL-1β stimulated proliferation [9] [Picomolar] | Kd [10] [nM] | further results
mouse monoclonal antibody Mu007 (antibody, V domains shown) VH: QVQLVQSGAEVKKPGASVKVSCKVSGYTFSRYWIEWVRQAPGKGLEWIGEILPGNGNINYNEKFKGKATITADTSTDTAYMELSSLRSEDTAVYYCSTIYYDYDQGFTYWGQGTLVTVSA VL: DIKMTQSPSSMYASLGERVTITCKASQDIDRYLSWFQQKPGKSPKTLIYRVKRLVDGVPSRFSGSASGQDYSLTISSLQYEDMGIYYCLQYDEFPYTFGGGTKLEIK |  |  | IC50, inhibition of IL-1β stimulated proliferation of T1165.17 cells (3H-thymidine), average of three experiments [1]: 0.22 nM; Kd [2]: 0.0062 nM; Kd [3]: 0.0073 nM; IC50 [4]: 0.4 mg/L; IC50 [5]: 0.4 mg/L; IC50 [6]: 0.39 mg/L; IC50 [7]: 0.4 mg/L
Hu007 analog N55D (antibody, human IgG1, kappa, V domains shown, IgG1; Heavy chain of Hu007 with N55D, co-transfected with the WT Hu007 light chain; It mimics fully deamidated Hu007; also called heavy chain CDR2 analog N55D) VH: QVQLVQSGAEVKKPGASVKVSCKVSGYTFSRYWIEWVRQAPGKGLEWIGEILPGDGNINYNEKFKGKATITADTSTDTAYMELSSLRSEDTAVYYCSTIYYDYDQGFTYWGQGTLVTVSS VL: DIQMTQSPSSLSASVGDRVTITCKASQDIDRYLSWFQQKPGKAPKSLIYRVKRLVDGVPSRFSGSASGTDYTLTISSLQPEDFATYYCLQYDEFPYTFGQGTKLEIKR | 1100 | 0.149 | fold loss of binding affinity against Hu007 [8]: ~15 fold
Hu007 analog N55Q (antibody, human IgG1, kappa, V domains shown, IgG1; Heavy chain of Hu007 with N55Q, co-transfected with the WT Hu007 light chain) VH: QVQLVQSGAEVKKPGASVKVSCKVSGYTFSRYWIEWVRQAPGKGLEWIGEILPGQGNINYNEKFKGKATITADTSTDTAYMELSSLRSEDTAVYYCSTIYYDYDQGFTYWGQGTLVTVSS VL: DIQMTQSPSSLSASVGDRVTITCKASQDIDRYLSWFQQKPGKAPKSLIYRVKRLVDGVPSRFSGSASGTDYTLTISSLQPEDFATYYCLQYDEFPYTFGQGTKLEIKR | 2500 | 0.257 | 
Hu007 analog G56V (antibody, human IgG1, kappa, V domains shown, IgG1; Heavy chain of Hu007 with G56V, co-transfected with the WT Hu007 light chain) VH: QVQLVQSGAEVKKPGASVKVSCKVSGYTFSRYWIEWVRQAPGKGLEWIGEILPGNVNINYNEKFKGKATITADTSTDTAYMELSSLRSEDTAVYYCSTIYYDYDQGFTYWGQGTLVTVSS VL: DIQMTQSPSSLSASVGDRVTITCKASQDIDRYLSWFQQKPGKAPKSLIYRVKRLVDGVPSRFSGSASGTDYTLTISSLQPEDFATYYCLQYDEFPYTFGQGTKLEIKR | 395 | 0.0732 | 
Hu007 analog G56A (antibody, human IgG1, kappa, V domains shown, IgG1; Heavy chain of Hu007 with G56A, co-transfected with the WT Hu007 light chain) VH: QVQLVQSGAEVKKPGASVKVSCKVSGYTFSRYWIEWVRQAPGKGLEWIGEILPGNANINYNEKFKGKATITADTSTDTAYMELSSLRSEDTAVYYCSTIYYDYDQGFTYWGQGTLVTVSS VL: DIQMTQSPSSLSASVGDRVTITCKASQDIDRYLSWFQQKPGKAPKSLIYRVKRLVDGVPSRFSGSASGTDYTLTISSLQPEDFATYYCLQYDEFPYTFGQGTKLEIKR | 184 | 0.0336 | 
Hu007 analog N55S (antibody, human IgG1, kappa, V domains shown, IgG1; also called heavy chain CDR2, N55S) VH: QVQLVQSGAEVKKPGASVKVSCKVSGYTFSRYWIEWVRQAPGKGLEWIGEILPGSGNINYNEKFKGKATITADTSTDTAYMELSSLRSEDTAVYYCSTIYYDYDQGFTYWGQGTLVTVSS VL: DIQMTQSPSSLSASVGDRVTITCKASQDIDRYLSWFQQKPGKAPKSLIYRVKRLVDGVPSRFSGSASGTDYTLTISSLQPEDFATYYCLQYDEFPYTFGQGTKLEIKR | 184 | 0.0281 | fold of the binding affinity of Hu007 [8]: ≤ 3 fold
